Patent US20230029835A1 (KEYMED BIOSCIENCES, published 2023)

T1: Cynomolgus macaques TSLP recombinant protein (Cynomolgus macaques, UniProt Q969D9 29-159 (human entry), limits assumed, biotinylated in the blocking assays (sites not given))
T1 construct: also called cyTSLP; biotinylated Cynomolgus macaques TSLP protein
T1 chain: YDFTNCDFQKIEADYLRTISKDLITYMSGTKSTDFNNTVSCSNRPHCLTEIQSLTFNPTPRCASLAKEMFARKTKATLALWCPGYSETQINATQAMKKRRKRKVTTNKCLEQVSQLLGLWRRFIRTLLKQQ


Experiments:
[1] = molecular target: T1, Cynomolgus macaques TSLP recombinant …; test: ELISA on coated cynomolgus TSLP;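 further: Read-out was TMB colorimetric signal measured as absorbance at 450 nm after 10 min development at 37 °C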
Experimental: The plate was washed three times with PBS and blocked by adding 200 μL/well of PBS containing 2% skim milk for 1 hour. […] After washing with PBST and PBS three times, respectively, 100 μL of TMB substrate was added to each well for color development at 37° C. for 10 minutes, the reaction was terminated with 50 μL of 2M sulfuric acid solution per well, and the absorbance was read at a wavelength of 450 nm.

[2] = molecular target: T2, human TSLP recombinant protein (human, UniProt Q969D9 29-159, biotinylated in the blocking and cell-binding assays (sites not given)); test: ELISA, human TSLP coated at 1 ug/mL, anti-human IgG Fc-HRP, A450
T2 construct: also called biotinylated human TSLP protein

binding result [1]	binding result [2]	Binder
binds	binds	Ab12 (antibody, V domains shown, Humanized; also called h39G5VHv12/h39G5VKv1) VH: QVQLVQSGAEVKKPGSSVKVSCKASGYTFTDYWMHWVRQAPGQGLEWMGTIDNSDSDTSLNQKFQGRVTITADESSSTAYMELSSLRSEDTAVYYCARSLDGYYDYWGQGTLVTVSS VL: DIQMTQSPSSLSASVGDRVTITCRASENIYSYLAWYQQKPGKAPKLLIYNARTLPEGVPSRFSGSGSGTDFTLTISSLQPEDFATYYCQHHYTTPWTFGQGTKVEIK
no binding	binds	Ab14 (antibody, V domains shown, Humanized; also called h39G5VHv14/h39G5VKv1) VH: EVQLVQSGAEVKKPGESLKISCKASGYTFTDYWMHWVRQMPGKGLEWMGTIDNSDSDTSLNQSFQGHVTISADKSISTAYLQWSSLKASDTAMYYCARSLDGYYDYWGQGTLVTVSS VL: DIQMTQSPSSLSASVGDRVTITCRASENIYSYLAWYQQKPGKAPKLLIYNARTLPEGVPSRFSGSGSGTDFTLTISSLQPEDFATYYCQHHYTTPWTFGQGTKVEIK
